Results on 4 molecules are retold here after patent publication US20200172626A1 (EUTILEX, published 2020).

Changes are numbered by the printed parent chain.

The target of experiment [1] is T1, human 4-1BB expressed on cells (human, UniProt Q07011 24-255). Nature of the experiment: cell-based or functional assay.
Experiment [2] concerns the target T1, human 4-1BB expressed on cells. Put plainly: FACS on anti-CD3-activated human CD8+ T cells, antibody at 25 ng/ml. The procedure: CD8⁺ T cells were isolated from human PBMCs and activated with 1 μg/ml anti-CD3 antibody for 2 day. The ability of exemplary humanized anti-human 4-1BB antibodies (94K, 94 KV, 94KVT and EU101) described in Example 1 to detect a 4-1BB on the surface of activated […] T cells was assessed relative to an exemplary commercially available anti-4-1BB antibody (4-1BB-PE). Also shown is detection with a BBK-4 a murine anti-human 4-1BB antibody and a 94G1 reference humanized antibody. Treatment with 4-1BB antibodies was at a concentration of 25 ng/ml.
Exemplary antibodies were detected with an anti-mIgG-Dylight488 or anti-hIgG-Dylight488 as appropriate, and analyzed by FACS.

The target in experiment [3] is T2, human 4-1BB antigen (H4-1BB) (human, UniProt Q07011 24-186, limits assumed). Nature of the experiment: ELISA of Fab in E. coli supernatant, binding divided by expression level; data not shown. The procedure:
ELISA was performed the following day on a supernatant obtained by centrifugation at 12,000 rpm for 10 minutes at 4° C.
A Fab antibody prepared by substituting the constant heavy chain of pCOM-Fab94G1-L with the heavy chain of the backbone 94G1 on the improved 94G1 light chain was called 94/w. Thus, a 94/w variant includes an improved 94G1 light chain in which the 6th amino acid of LCDR3 is substituted with tryptophan (W) ([…]—SEQ ID NO: 4) and a 94G1 heavy chain. IPTG-induced expression in E. coli and ELISA of a 94/w Fab was used to determine binding affinity as described above. Using this method, it was determined that a 94/w Fab antibody has a binding activity 3.5 times higher than that of 94G1 (Fab antibody) (data not shown).
For orientation: An ELISA detects its analyte on a solid surface through an enzyme-linked reagent.

Experiment [4] concerns the target T3, GST-4-1BB ECD fragment R2 fusion polypeptide (human, UniProt Q07011 76-130).
T3 construct: not shown: GST carrier at the N end (pGEX-6T, 27 kDa) and the vector-derived junction residues
Nature of the experiment: western blot on GST fusion polypeptides. The procedure: Purified protein samples were obtained from transformed bacterial cells by a lysis buffer (e.g., 10 mM Tris-HCl—pH 7.4, 50 mM NaCl, 5 mM EDTA, 30 mM NaF, 0.1 mM Na3VO4, 1% Triton X-100, 0.5% Nonidet P-40, 1 mM PMSF, and protease inhibitor mixture). Approximately 20 μg of each fusion polypeptide sample was diluted in a 4×SDS sample buffer, subjected to electrophoresis on SDS-PAGE gels, and then transferred to nitrocellulose membranes (Millipore, Bedford, Mass.). On the cellulose membranes, anti-human 4-1BB mAb was reacted with anti-mouse IgG horseradish […] (HRP). Binding antibodies were recognized by enhanced chemiluminescence (ECL) (Amersham Pharmacia Biotech, Little Chalfont, UK).
As described above and shown in FIG. 1B, when each of three non-overlapping H4-1BB ECD fragment-GST fusion polypeptides, R1, R2, and R3, were treated with GST-binding, respectively. It was determined that an exemplary humanized anti-4-1BB antibody encompassed by the present disclosure (EU101) binds to an N-terminal fragment construct (R1) fusion construct of approximately 32 kDa (amino acids 1 to 55 of 4-1BB) by western blotting.
For orientation: Immunoblotting shows a protein as a band on a membrane.

The target of experiment [5] is T4, GST-4-1BB ECD fragment R1.1 fusion polypeptide (human, UniProt Q07011 21-65).
T4 construct: not shown: GST carrier at the N end (pGEX-6T, 27 kDa) and the vector-derived junction residues
T4 chain: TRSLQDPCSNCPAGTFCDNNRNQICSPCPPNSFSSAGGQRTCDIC
Put plainly: western blot on E. coli whole cell extracts (FIG. 2B). The procedure:
(§1) FIG. 2A depicts an SDS-PAGE gel of whole cell extracts from cells expressing 4-1BB ECD fusion constructs. Fusion constructs as described above in FIG. 2A were expressed in E. coli BL21 cells induced with 1 mM IPTG, and whole cell extracts resolved by 12% SDS-PAGE. As shown, all fusion constructs (ECD, R1, R1.1, R1.2, R1.3, R1.4, R1.5, and R1.6) have robust protein expression. FIG. 2B depicts a western blot showing binding of an exemplary humanized anti-4-1BB antibody to full length 4-1BB ECD fusion polypeptide, and R1.1, R1.2, R1.3, and R1.6 fusion polypeptides, but not to the R1.4 or R1.5 fusion polypeptides. Immunoblots were performed with an exemplary anti-human 4-1BB antibody. Molecular size markers are indicated in kDa on the left.
(§2) SDS-PAGE was transferred to a nitrocellulose membrane and immunoblotting was performed using an exemplary anti-human 4-1BB antibody, EU101. […] It was also confirmed that a sequence including amino acids 35 to 50 of the 4-1BB extracellular domain is […] for binding an exemplary humanized antibody described herein (FIG. 2B).

Experiment [6] has as its target T5, GST-4-1BB ECD fragment R1.2 fusion polypeptide (human).
T5 construct: not shown: GST carrier at the N end (pGEX-6T, 27 kDa) and the vector-derived junction residues
T5 chain: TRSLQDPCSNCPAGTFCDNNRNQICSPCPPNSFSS
Described as above. The procedure: as §1, §2

The target in experiment [7] is T6, GST-4-1BB ECD fragment R1.3 fusion polypeptide (human, UniProt Q07011 31-75).
T6 construct: not shown: GST carrier at the N end (pGEX-6T, 27 kDa) and the vector-derived junction residues
T6 chain: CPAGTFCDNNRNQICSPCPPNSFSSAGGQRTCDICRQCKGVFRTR
The experiment is described as above. As to the method:
as §1, §2

Experiment [8] addresses T7, GST-4-1BB ECD fragment R1.6 fusion polypeptide (human, N-terminal GST fusion, not written).
T7 construct: not shown: GST carrier at the N end (27 kDa, pGEX-6T) and the vector-derived residues at the BamHI/XhoI junctions
T7 chain: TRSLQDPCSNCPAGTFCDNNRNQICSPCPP
The experiment is described as above. The procedure: as §1, §2

Experiment [9] concerns the target T8, GST-4-1BB ECD fragment R1.4 fusion polypeptide (human).
T8 construct: not shown: GST carrier at the N end (pGEX-6T, 27 kDa) and the vector-derived junction residues
T8 chain: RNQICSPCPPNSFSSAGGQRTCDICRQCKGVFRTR
Put plainly: western blot on E. coli whole cell extracts with GST fusion polypeptides. As to the method:
as §1, §2

Experiment [10] deals with T2, human 4-1BB antigen (H4-1BB). Nature of the experiment: SPR (Biacore 3000, CM5 chip), antibody captured on immobilized anti-human IgG, human 4-1BB antigen (H4-1BB) flowed over. The source says:
In vitro binding affinity of exemplary engineered antibody EU101 as described in Example 1, along with that of a reference 94G1 humanized antibody were each determined by Biacore analysis. Anti-human IgG was immobilized on a CM5 chip, and coupled to the Fab antibodies prepared above by flowing over the chip, and ultimately reacted with a human 4-1BB antigen (H4-1BB) to measure the binding activity between the antibody and the antigen (Biacore3000, sensor chip CM5). Ka (1/Ms) and Kd (1/s) values represent how fast an antibody associates with and dissociates from an antigen, respectively. A dissociation constant (KD) is obtain by dividing Kd by Ka (Kd/Ka=[…]).
Background: In SPR one partner is held on a chip, and binding of the other changes the refractive index at the surface.

T1 sequence (Q07011 24-255 limits assumed): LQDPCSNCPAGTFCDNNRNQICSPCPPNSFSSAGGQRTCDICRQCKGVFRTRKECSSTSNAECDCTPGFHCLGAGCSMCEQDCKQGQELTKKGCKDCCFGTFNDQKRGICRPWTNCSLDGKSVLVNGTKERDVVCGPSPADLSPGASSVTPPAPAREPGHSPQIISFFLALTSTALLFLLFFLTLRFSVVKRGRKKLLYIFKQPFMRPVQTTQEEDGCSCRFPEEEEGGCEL

B1: 94KVT (full length 94KVT/w antibody) (antibody, human IgG1)
heavy: not shown
VL: DIVMTQSPAFLSVTPGEKVTITCRASQTISDYLHWYQQKPDQAPKLLIKYASQSISGIPSRFSGSGSGTDFTFTISSLEAEDAATYYCQDGHSWPPTFGQGTKLEIK
notes: Full length IgG1
Take B1: the “IFNgamma secretion by anti-CD3-treated CD8+ T cells, 1.0 ug/ml antibody, day 5, against the control group” value in experiment [1] amounted to 13 fold. For the same molecule, the “percent of CD8+ T cells on which 4-1BB was detected” value (from here on “percent of CD8+ T cells”) in experiment [2] was found to be 25.3%.

B2: 94/w Fab antibody (Fab, V domains shown)
VH: QVQLQQSGAEVKKPGASVKLSCKASGYTFSSYWMHWVRQAPGQGLEWIGEINPGNGHTNYNEKFKSRATMTRDTSTSTAYMELSSLRSEDSAVYYCARSFTTARAFAYWGQGTLVTVSS
VL: B1 VL
notes: Fab expressed in E. coli TG1 from a pComb3H-derived vector and tested as culture supernatant; also called 941w
Turning to B2, the “binding activity as fold of 94G1 (Fab antibody)” value in experiment [3] is 3.5 fold.

B3: EU101 (antibody, human IgG1, L234A L235A)
heavy: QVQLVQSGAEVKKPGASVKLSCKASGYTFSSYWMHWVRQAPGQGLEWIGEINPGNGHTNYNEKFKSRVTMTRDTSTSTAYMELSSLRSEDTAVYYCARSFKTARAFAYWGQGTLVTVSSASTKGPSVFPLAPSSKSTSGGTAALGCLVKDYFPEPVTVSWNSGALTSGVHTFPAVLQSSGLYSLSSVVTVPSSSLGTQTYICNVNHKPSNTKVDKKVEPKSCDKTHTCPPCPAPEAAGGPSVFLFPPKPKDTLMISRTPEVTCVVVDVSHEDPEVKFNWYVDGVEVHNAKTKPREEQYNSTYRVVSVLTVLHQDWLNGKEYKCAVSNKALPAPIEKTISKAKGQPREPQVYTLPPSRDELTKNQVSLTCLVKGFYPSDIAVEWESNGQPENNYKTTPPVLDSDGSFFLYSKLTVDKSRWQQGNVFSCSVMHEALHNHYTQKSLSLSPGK
VL: B1 VL
notes: Full length antibody with the 94KVT/w variable domains and a variant IgG1 constant domain; The light chain constant domain is not tied to EU101; also called exemplary humanized anti-4-1BB antibody; exemplary anti-human 4-1BB antibody (EU101)
By Kd is commonly meant the constant that tells how readily two partners part at equilibrium. Usually koff stands for the rate constant with which the complex falls apart. A lower koff goes with a long-lived complex. Regarding B3, the “IFNgamma secretion by anti-CD3-treated CD8+ T cells, 1.0 ug/ml antibody, day 5, against the control group” value in [1] was 13 fold. The binding result in experiment [4] is “no binding”; in experiment [5], “binds”; in [6], “binds”; in experiment [7] it was “binds”; in experiment [8], “binds”; in experiment [9], “no binding”. Moreover, in experiment [2], the “percent of CD8+ T cells” value stood at 28.3%. The molecule also came in with a Kd in experiment [10] of 0.0636 nM. For the same molecule, the off-rate constant (koff) in experiment [10] was 1.8e-05 s⁻¹.

B4: 94G1 reference humanized anti-human 4-1BB antibody (antibody, V domains shown)
VH: B2 VH
VL: B1 VL with W94F
As for B4, the “percent of CD8+ T cells” value in experiment [2] turned out to be 17.9%. Further, in experiment [10], binding was put at a Kd of 0.602 nM and the koff is 0.000118 s⁻¹.
